Reference: patent US20250101080A1 (BIOSCEPTRE AUST, published 2025)
Residue numbers refer to the chain shown, from its start.

T1: dysfunctional (non-functional) P2X7 receptor expressed on human cancer cells (human, UniProt Q99572 1-595)
T1 sequence: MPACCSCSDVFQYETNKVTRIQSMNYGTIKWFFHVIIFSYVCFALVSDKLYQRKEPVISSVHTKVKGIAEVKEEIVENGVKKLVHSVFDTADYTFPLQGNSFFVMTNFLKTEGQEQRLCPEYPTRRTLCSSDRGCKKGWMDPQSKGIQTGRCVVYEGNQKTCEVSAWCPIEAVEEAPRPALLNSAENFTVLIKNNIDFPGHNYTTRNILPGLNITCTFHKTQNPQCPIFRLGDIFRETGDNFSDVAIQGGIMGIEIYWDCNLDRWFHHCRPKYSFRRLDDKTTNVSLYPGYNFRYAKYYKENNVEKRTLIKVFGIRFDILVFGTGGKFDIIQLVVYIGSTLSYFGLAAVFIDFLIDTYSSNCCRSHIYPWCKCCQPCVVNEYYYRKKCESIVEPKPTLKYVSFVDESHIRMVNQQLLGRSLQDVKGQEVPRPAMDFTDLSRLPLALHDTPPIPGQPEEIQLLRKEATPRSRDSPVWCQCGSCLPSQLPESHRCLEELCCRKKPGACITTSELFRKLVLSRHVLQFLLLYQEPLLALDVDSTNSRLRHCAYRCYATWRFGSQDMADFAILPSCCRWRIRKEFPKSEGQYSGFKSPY

T2: EXD2_K193A (nf-P2X7) surface fusion protein on HEK293 cells (human, UniProt Q99572 47-332)
T2 sequence: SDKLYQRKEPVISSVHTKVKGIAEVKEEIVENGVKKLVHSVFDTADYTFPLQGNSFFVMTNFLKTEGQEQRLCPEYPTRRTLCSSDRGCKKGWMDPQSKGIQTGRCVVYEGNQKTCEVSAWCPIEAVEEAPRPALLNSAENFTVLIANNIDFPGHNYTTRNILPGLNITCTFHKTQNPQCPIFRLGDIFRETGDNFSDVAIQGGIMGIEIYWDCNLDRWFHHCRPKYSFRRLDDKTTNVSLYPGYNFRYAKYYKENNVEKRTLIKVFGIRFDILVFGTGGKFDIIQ

B1: PEP2-2-1-1 CAR (other)
chain: EVQLLESGGGLVQPGGSLRLSCAASGFTFRNHDMGWVRQAPGKGLEWVSAISGSGGSTYYADSVKGRFTISRDNSKNTLYLQMNSLRAEDTAVYYCAEPKPMDTEFDYRSPGTLVTVSSGGGESKYGPPCPSCPAPPVAGPSVFLFPPKPKDTLMISRTPEVTCVVVDVSQEDPEVQFNWYVDGVEVHNAKTKPREEQFNSTYRVVSVLTVLHQDWLNGKEYKCKVSNKGLPSSIEKTISKAKGQPREPQVYTLPPSQEEMTKNQVSLTCLVKGFYPSDIAVEWESNGQPENNYKTTPPVLDSDGSFFLYSRLTVDKSRWQEGNVFSCSVMHEALHNHYTQKSLSLSLGKPFWVLVVVGGVLACYSLLVTVAFIIFWVRSKRSRLLHSDYMNMTPRRPGPTRKHYQPYAPPRDFAAYRSRDQRLPPDAHKPPGGGSFRTPIQEEQADAHSTLAKIRVKFSRSADAPAYQQGQNQLYNELNLGRREEYDVLDKRRGRDPEMGGKPRRKNPQEGLYNELQKDKMAEAYSEIGMKGERRRGKGHDGLYQGLSTATKDTYDALHMQALPPR
B2: PEP2-472-2 CAR (other)
chain: B1 chain with F27Y, R30P, N31M, H32K, S57G, S118L, S119E

Columns and labels:
[1] = biological target: T1, dysfunctional (non-functional) P2X7 …; assay: cell-based or functional assay
[2] = biological target: T2, EXD2_K193A (nf-P2X7) surface fusion …; assay: cell-based or functional assay

| Binder | fold change in cell killing against empty vector transduced CD8 T cells (CytoTox 96 assay, 4 hours, 1:1 ratio, MDA-MB-231 cells) [1] | fold change in cell killing against empty vector transduced CD8 T cells (CytoTox 96 assay, 4 hours, 1:1 ratio) [2] |
| --- | --- | --- |
| B1 | ~2.5 fold | ~15 fold |
| B2 | ~2.25 fold | ~11 fold |
